# Laboratory results: patent publication US20180155451A1 (published 2018)
# What was measured:
# [1] = biological target: T1, FcγRIIIa extracellular domain with C-terminal His tag (human, UniProt P08637 17-208); test: SPR (Biacore); He/Con_3a divided by He/Con_2b (reference: binding to FcγRIIb)
# T1 construct: extracellular domain; also called FcgRIIIa; 3a; not shown: His tag attached to the C terminus
# Experimental: (§1) Analysis of interaction between objective antibody and the FcγR was carried out using Biacore T100 (GE Healthcare). HBS-EP+ (GE Healthcare) was used as the running buffer, and the measurement temperature was set to 25° C. Chips produced by immobilizing the antigen peptide by the amine coupling method to a Series S Sencor Chip CM5 (GE Healthcare), or alternatively, chips produced by allowing preliminarily biotinylated antigen peptides to interact with and immobilize onto a Series S Sensor Chip SA (certified) (GE Healthcare) were used. Antibodies of interest were captured onto an antigen peptide-immobilized chip, and allowed to interact to each FcγR diluted with running buffer. To regenerate and repeatedly use the chip, the antibodies captured on the chip were washed off by reacting 10 mM glycine-HCl, pH 1.5.
# (§2) The FcγR-binding activity of each antibody was assessed primarily using as an indicator the FcγR-binding activity and dissociation constant for FcγR.
# [2] = biological target: T1, FcγRIIIa extracellular domain with …; test: SPR (Biacore), relative binding
# Experimental: as §1, §2
# [3] = biological target: T2, FcγRIIb extracellular domain with C-terminal His tag (human, UniProt P31994 43-217); test: SPR (Biacore), relative binding
# T2 construct: extracellular domain; also called FcgRIIb; 2b; not shown: His tag attached to the C terminus
# T2 sequence (looked up): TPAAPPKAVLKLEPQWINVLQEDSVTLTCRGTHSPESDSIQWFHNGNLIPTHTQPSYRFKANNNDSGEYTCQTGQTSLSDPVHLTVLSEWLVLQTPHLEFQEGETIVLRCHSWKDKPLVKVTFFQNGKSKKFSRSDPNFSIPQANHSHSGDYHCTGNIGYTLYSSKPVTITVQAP
# Experimental: as §1, §2
# T1 sequence (P08637 17-208): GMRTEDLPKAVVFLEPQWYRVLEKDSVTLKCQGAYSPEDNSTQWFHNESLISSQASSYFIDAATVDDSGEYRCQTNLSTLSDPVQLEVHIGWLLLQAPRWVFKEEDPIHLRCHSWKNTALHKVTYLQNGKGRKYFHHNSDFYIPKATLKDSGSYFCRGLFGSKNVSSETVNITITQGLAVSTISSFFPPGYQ
binder,measurement,setting,value
"GpH7-A5/GpH7-B3 variant N325_13S/GpL16-k0 (antibody, human IgG1, kappa, Heterodimerized IgG1; alteration in one H chain only; also called He Ab) heavy 1: not shown heavy 2: not shown light: DIVMTQSPLSLPVTPGEPASISCQASESLVHSNRNTYLHWYLQKPGQSPQLLIYKVSNRFSGVPDRFSGSGSGTDFTLKISRVEAEDVGVYYCSQNTHVPPTFGQGTKVEIERTVAAPSVFIFPPSDEQLKSGTASVVCLLNNFYPREAKVQWKVDNALQSGNSQESVTEQDSKDSTYSLSSTLTLSKADYEKHKVYACEVTHQGLSSPVTKSFNRGEC",He_3a/2b (IIIa/IIb),[1],0.37 ratio
same,He/Con_3a (IIIa binding),[2],65.1 % of GpH7-A5/GpH7-B3/GpL16-k0 (=100)
same,He/Con_2b (IIb binding),[3],177 % of GpH7-A5/GpH7-B3/GpL16-k0 (=100)
"GpH7-A5/GpH7-B3 variant Y296_18N/GpL16-k0 (antibody, human IgG1, kappa, Heterodimerized IgG1; alteration in one H chain only; also called He Ab) heavy 1: not shown heavy 2: not shown light: DIVMTQSPLSLPVTPGEPASISCQASESLVHSNRNTYLHWYLQKPGQSPQLLIYKVSNRFSGVPDRFSGSGSGTDFTLKISRVEAEDVGVYYCSQNTHVPPTFGQGTKVEIERTVAAPSVFIFPPSDEQLKSGTASVVCLLNNFYPREAKVQWKVDNALQSGNSQESVTEQDSKDSTYSLSSTLTLSKADYEKHKVYACEVTHQGLSSPVTKSFNRGEC",He_3a/2b (IIIa/IIb),[1],0.79 ratio
same,He/Con_3a (IIIa binding),[2],72.1 % of GpH7-A5/GpH7-B3/GpL16-k0 (=100)
same,He/Con_2b (IIb binding),[3],91.5 % of GpH7-A5/GpH7-B3/GpL16-k0 (=100)
"GpH7-A5/GpH7-B3 variant Y296_13S/GpL16-k0 (antibody, human IgG1, kappa, Heterodimerized IgG1; alteration in one H chain only; also called He Ab) heavy 1: not shown heavy 2: not shown light: DIVMTQSPLSLPVTPGEPASISCQASESLVHSNRNTYLHWYLQKPGQSPQLLIYKVSNRFSGVPDRFSGSGSGTDFTLKISRVEAEDVGVYYCSQNTHVPPTFGQGTKVEIERTVAAPSVFIFPPSDEQLKSGTASVVCLLNNFYPREAKVQWKVDNALQSGNSQESVTEQDSKDSTYSLSSTLTLSKADYEKHKVYACEVTHQGLSSPVTKSFNRGEC",He_3a/2b (IIIa/IIb),[1],0.72 ratio
same,He/Con_3a (IIIa binding),[2],61.8 % of GpH7-A5/GpH7-B3/GpL16-k0 (=100)
same,He/Con_2b (IIb binding),[3],86.3 % of GpH7-A5/GpH7-B3/GpL16-k0 (=100)
"GpH7-A5/GpH7-B3 variant Y296_11K/GpL16-k0 (antibody, human IgG1, kappa, Heterodimerized IgG1; alteration in one H chain only; also called He Ab) heavy 1: not shown heavy 2: not shown light: DIVMTQSPLSLPVTPGEPASISCQASESLVHSNRNTYLHWYLQKPGQSPQLLIYKVSNRFSGVPDRFSGSGSGTDFTLKISRVEAEDVGVYYCSQNTHVPPTFGQGTKVEIERTVAAPSVFIFPPSDEQLKSGTASVVCLLNNFYPREAKVQWKVDNALQSGNSQESVTEQDSKDSTYSLSSTLTLSKADYEKHKVYACEVTHQGLSSPVTKSFNRGEC",He_3a/2b (IIIa/IIb),[1],0.78 ratio
same,He/Con_3a (IIIa binding),[2],56.7 % of GpH7-A5/GpH7-B3/GpL16-k0 (=100)
same,He/Con_2b (IIb binding),[3],72.8 % of GpH7-A5/GpH7-B3/GpL16-k0 (=100)
"GpH7-A5/GpH7-B3 variant Y296_01G/GpL16-k0 (antibody, human IgG1, kappa, Heterodimerized IgG1; alteration in one H chain only; also called He Ab) heavy 1: not shown heavy 2: not shown light: DIVMTQSPLSLPVTPGEPASISCQASESLVHSNRNTYLHWYLQKPGQSPQLLIYKVSNRFSGVPDRFSGSGSGTDFTLKISRVEAEDVGVYYCSQNTHVPPTFGQGTKVEIERTVAAPSVFIFPPSDEQLKSGTASVVCLLNNFYPREAKVQWKVDNALQSGNSQESVTEQDSKDSTYSLSSTLTLSKADYEKHKVYACEVTHQGLSSPVTKSFNRGEC",He_3a/2b (IIIa/IIb),[1],0.69 ratio
same,He/Con_3a (IIIa binding),[2],54.5 % of GpH7-A5/GpH7-B3/GpL16-k0 (=100)
same,He/Con_2b (IIb binding),[3],79.3 % of GpH7-A5/GpH7-B3/GpL16-k0 (=100)
"GpH7-A5/GpH7-B3 variant Y296_16H/GpL16-k0 (antibody, human IgG1, kappa, Heterodimerized IgG1; alteration in one H chain only; also called He Ab) heavy 1: not shown heavy 2: not shown light: DIVMTQSPLSLPVTPGEPASISCQASESLVHSNRNTYLHWYLQKPGQSPQLLIYKVSNRFSGVPDRFSGSGSGTDFTLKISRVEAEDVGVYYCSQNTHVPPTFGQGTKVEIERTVAAPSVFIFPPSDEQLKSGTASVVCLLNNFYPREAKVQWKVDNALQSGNSQESVTEQDSKDSTYSLSSTLTLSKADYEKHKVYACEVTHQGLSSPVTKSFNRGEC",He_3a/2b (IIIa/IIb),[1],0.8 ratio
same,He/Con_3a (IIIa binding),[2],73.4 % of GpH7-A5/GpH7-B3/GpL16-k0 (=100)
same,He/Con_2b (IIb binding),[3],92.2 % of GpH7-A5/GpH7-B3/GpL16-k0 (=100)
"GpH7-A5/GpH7-B3 variant N325_20W/GpL16-k0 (antibody, human IgG1, kappa, Heterodimerized IgG1; alteration in one H chain only; also called He Ab) heavy 1: not shown heavy 2: not shown light: DIVMTQSPLSLPVTPGEPASISCQASESLVHSNRNTYLHWYLQKPGQSPQLLIYKVSNRFSGVPDRFSGSGSGTDFTLKISRVEAEDVGVYYCSQNTHVPPTFGQGTKVEIERTVAAPSVFIFPPSDEQLKSGTASVVCLLNNFYPREAKVQWKVDNALQSGNSQESVTEQDSKDSTYSLSSTLTLSKADYEKHKVYACEVTHQGLSSPVTKSFNRGEC",He_3a/2b (IIIa/IIb),[1],0.19 ratio
same,He/Con_3a (IIIa binding),[2],32.8 % of GpH7-A5/GpH7-B3/GpL16-k0 (=100)
same,He/Con_2b (IIb binding),[3],169 % of GpH7-A5/GpH7-B3/GpL16-k0 (=100)
"GpH7-A5/GpH7-B3 variant N325_15Y/GpL16-k0 (antibody, human IgG1, kappa, Heterodimerized IgG1; alteration in one H chain only; also called He Ab) heavy 1: not shown heavy 2: not shown light: DIVMTQSPLSLPVTPGEPASISCQASESLVHSNRNTYLHWYLQKPGQSPQLLIYKVSNRFSGVPDRFSGSGSGTDFTLKISRVEAEDVGVYYCSQNTHVPPTFGQGTKVEIERTVAAPSVFIFPPSDEQLKSGTASVVCLLNNFYPREAKVQWKVDNALQSGNSQESVTEQDSKDSTYSLSSTLTLSKADYEKHKVYACEVTHQGLSSPVTKSFNRGEC",He_3a/2b (IIIa/IIb),[1],0.3 ratio
same,He/Con_3a (IIIa binding),[2],29.5 % of GpH7-A5/GpH7-B3/GpL16-k0 (=100)
same,He/Con_2b (IIb binding),[3],99.5 % of GpH7-A5/GpH7-B3/GpL16-k0 (=100)
